According to publication PMC9308757:

What was measured:
MBP-DDX3X = MBP-DDX3X (human, UniProt O00571 1-662); test: smFRET
MBP-DDX3Y = MBP-DDX3Y (human, UniProt O15523 1-660); test: smFRET
Chain of MBP-DDX3Y (O15523 whole entry): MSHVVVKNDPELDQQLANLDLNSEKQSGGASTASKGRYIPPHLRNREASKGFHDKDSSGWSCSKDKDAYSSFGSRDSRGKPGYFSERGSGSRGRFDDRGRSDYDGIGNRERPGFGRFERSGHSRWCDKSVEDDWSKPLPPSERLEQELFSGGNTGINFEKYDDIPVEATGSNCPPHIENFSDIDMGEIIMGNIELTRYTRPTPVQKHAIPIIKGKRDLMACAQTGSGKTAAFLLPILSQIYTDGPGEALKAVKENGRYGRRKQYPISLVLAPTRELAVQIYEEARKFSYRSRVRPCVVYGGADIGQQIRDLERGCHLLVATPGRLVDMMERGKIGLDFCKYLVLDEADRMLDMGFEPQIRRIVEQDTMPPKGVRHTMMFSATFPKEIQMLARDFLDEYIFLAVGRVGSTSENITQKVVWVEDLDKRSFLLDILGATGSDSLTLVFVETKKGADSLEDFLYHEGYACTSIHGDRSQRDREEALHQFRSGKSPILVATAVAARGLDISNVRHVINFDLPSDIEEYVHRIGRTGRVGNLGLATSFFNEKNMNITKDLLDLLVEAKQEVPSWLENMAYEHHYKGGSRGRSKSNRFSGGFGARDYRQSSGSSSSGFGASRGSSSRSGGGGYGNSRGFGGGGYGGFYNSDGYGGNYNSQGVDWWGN

Chain of MBP-DDX3X (O00571 whole entry): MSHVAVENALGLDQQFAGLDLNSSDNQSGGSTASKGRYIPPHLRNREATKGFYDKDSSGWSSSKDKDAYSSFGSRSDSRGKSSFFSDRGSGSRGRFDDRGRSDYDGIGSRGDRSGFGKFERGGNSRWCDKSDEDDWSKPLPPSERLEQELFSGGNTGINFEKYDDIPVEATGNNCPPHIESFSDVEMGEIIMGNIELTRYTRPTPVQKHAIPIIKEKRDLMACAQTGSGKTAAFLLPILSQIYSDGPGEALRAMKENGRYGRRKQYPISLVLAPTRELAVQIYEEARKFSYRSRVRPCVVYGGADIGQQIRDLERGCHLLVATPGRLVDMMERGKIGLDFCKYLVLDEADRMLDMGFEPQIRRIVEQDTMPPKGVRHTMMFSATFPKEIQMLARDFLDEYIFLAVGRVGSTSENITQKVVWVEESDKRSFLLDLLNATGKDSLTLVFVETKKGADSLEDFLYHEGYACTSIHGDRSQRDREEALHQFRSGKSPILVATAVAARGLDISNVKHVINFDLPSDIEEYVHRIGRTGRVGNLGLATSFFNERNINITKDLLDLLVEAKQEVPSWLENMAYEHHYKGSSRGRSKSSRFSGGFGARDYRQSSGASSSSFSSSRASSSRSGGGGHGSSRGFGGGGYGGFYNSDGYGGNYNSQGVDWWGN

B1: smFRET dsRNA with 5' poly(U) overhang (dsRNA)
RNA 1: ACCGCUGCCGUCGCUCCG
RNA 2: UUUUUUUUUUUUUUUUUUUUUUUUUUUUUUUUUUUUUUUUUUUUUUUUUUCGGAGCGACGGCAGCGGU
B1: binds (MBP-DDX3X); binds (MBP-DDX3Y).
